{"source": "patent US20020182656", "proteins": {"B1": {"name": "Human recombinant GNK (hu-rGNK) (protein)", "chain": "MSVLGEYERHCDSINSDFGSESGGCGDSSPGPSASQGPRAGGGAAEQEELHYIPIRVLGRGAFGEATLYRRTEDDSLVVWKEVDLTRLSEKERRDALNEIVILALLQHDNIIAYYNHFMDNTTLLIELEYCNGGNLYDKILRQKDKLFEEEMVVWYLFQIVSAVSCIHKAGILHRDIKTLNIFLTKANLIKLGDYGLAKKLNSEYSMAETLVGTPYYMSPELCQGVKYNFKSDIWAVGCVIFELLTLKRTFDATNPLNLCVKIVQGIRAMEVDSSQYSLELIQMVHSCLDQDPEQRPTADELLDRPLLRKRRREMEEKVTLLNAPTKRPRSSTVTEAPIAVVTSRTSEVYVWGGGKSTPQKLDVIKSGCSARQVCAGNTHFAVVTVEKELYTWVNMQGGTKLHGQLGHGDKASYRQPKHVEKLQGKAIHQVSCGDDFTVCVTDEGQLYAFGSDYYGCMGVDKVAGPEVLEPMQLNFFLSNPVEQVSCGDNHVVVLTRNKEVYSWGCGEYGRLGLDSEEDYYTPQKVDVPKALIIVAVQCGCDGTFLLTQSGKVLACGLNEFNKLGLNQCMSGIINHEAYHEVPYTTSFTLAKQLSFYKIRTIAPGKTHTAAIDERGRLLTFGCNKCGQLGVGNYKKRLGINLLGGPLGGKQVIRVSCGDEFTIAATDDNHIFAWGNGGNGRLAMTPTERPHGSDICTSWPRPIFGSLHHVPDLSCRGWHTILIVEKVLNSKTIRSNSSGLSIGTVFQSSSPGGGGGGGGGEEEDSQQESETPDPSGGFRGTMEADRGMEGLISPTEAMGNSNGASSSCPGWLRKELENAEFIPMPDSPSPLSAAFSESEKDTLPYEELQGLKVASEAPLEHKPQVEASSPRLNPAVTCAGKGTPLTPPACACSSLQVEVERLQGLVLKCLAEQQKLQQENLQIFTQLQKLNKKLEGGQQVGMHSKGTQTAKEEMEMDPKPDLDSDSWCLLGTDSCRPSL"}}, "target": "T1, Purified, recombinant sGNK", "T1 chain": "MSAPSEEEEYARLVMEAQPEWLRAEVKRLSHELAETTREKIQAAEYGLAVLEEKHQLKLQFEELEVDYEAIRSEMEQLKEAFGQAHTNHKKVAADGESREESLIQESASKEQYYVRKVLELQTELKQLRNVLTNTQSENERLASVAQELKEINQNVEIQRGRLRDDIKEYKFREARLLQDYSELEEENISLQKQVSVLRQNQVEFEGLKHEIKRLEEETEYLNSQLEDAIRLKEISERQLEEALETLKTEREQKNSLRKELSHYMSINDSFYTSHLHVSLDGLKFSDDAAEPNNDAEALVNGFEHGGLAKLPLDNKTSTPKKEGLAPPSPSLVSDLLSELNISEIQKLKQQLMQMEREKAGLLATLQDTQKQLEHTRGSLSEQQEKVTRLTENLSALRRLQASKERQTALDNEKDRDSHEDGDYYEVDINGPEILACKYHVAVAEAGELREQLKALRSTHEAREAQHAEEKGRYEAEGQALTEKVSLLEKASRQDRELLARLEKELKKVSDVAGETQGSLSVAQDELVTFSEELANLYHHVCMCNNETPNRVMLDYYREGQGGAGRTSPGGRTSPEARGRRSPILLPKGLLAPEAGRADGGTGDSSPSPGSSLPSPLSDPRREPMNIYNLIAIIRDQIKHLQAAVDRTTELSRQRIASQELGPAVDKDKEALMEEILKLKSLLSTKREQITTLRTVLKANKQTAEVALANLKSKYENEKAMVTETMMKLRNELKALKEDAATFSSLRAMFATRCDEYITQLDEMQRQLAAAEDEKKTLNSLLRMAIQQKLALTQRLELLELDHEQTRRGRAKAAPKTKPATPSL"}
{"protein": "B1", "values": [{"measurement": "phosphorylation of sGNK by GNK (kinase assay with gamma-32P-ATP, SDS-PAGE, Phosphoimager)", "value": "GNK-mediated phosphorylation of sGNK was demonstrated using the kinase assay described above, except purified, recombinant sGNK was added to the kinase reaction mixture"}]}
